{
  "source": "paper PMC5595237",
  "about": "(Nature, 2017)",
  "molecular_target": "the molecule itself",
  "assay": "SEC",
  "data": [
    {"protein": "full-length human adiponectin (ligand) ETTTQGPGVLLPLPKGACTGWMAGIPGHPGHNGAPGRDGRDGTPGEKGEKGDPGLIGPKGDIGETGVPGAEGPRGFPGIQGRKGEPGEGAYVYRSAFSVGLETYVTIPNMPIRFTKIFYNQQNHYDGSTGKFHCNIPGLYYFAYHITVYMKDVKVSLFKKDKAMLFTYDQYQENNVDQASGSVLLHLEVGDQVWLQVYGEGERNGLYADNDNDSTFTGFLLYHDTN", "values": [
      {"measurement": "binding result", "result": "binds"}
    ]}
  ]
}
